Experimental data reported in the supplement of paper PMC10567573.

B1: ZNF649 (parent)
chain: LTEHKRIHTGKKPHVCSLCGKAFY

Variants of: B1
Experiment: protein stability index of a GFP-peptide fusion (GPS, HEK-293T) (PSI 1-6); higher = more stable
Details: c terminus: a fixed tail appended
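Note: lentivirally expressed fusions sorted by FACS into six bins by GFP to DsRed ratio, PSI derived from sequencing read proportions per bin multiplied by bin number.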

Protein stability index: each site, then its substitutions
A22: P 2.9, L 2.27, K 3.71, T 3.41, N 3.23, Q 2.26, F 2.16, I 2.62, H 2.46, E 2.24, D 2.51, S 2.55
R6: W 2.75, K 2.33, G 1.94, F 2.33, C 4.05, E 3.42, Q 4.11, T 3.08, N 2.58, L 2.14, I 2.71, D 2.93, S 2.25
I7: T 2.71, G 2.78, R 3.93, A 2.52, M 2.4, H 2.16, W 2.5, Q 2.73, S 3.72, V 2.58, D 2.31, N 2.85, E 2.71, L 3.11
T2: G 2.25, H 2.46, Y 2.31, W 2, D 3.12, K 2.26, M 2.16, S 3, A 2.57, E 3.01, P 2.32, Q 2.58, V 2.27, I 2.04, N 2.32
Y24: L 3.01, G 3.35, C 3.33, E 2.82, A 2.88, D 3.12, V 2.33, N 1.43, T 3.42, H 3.35
L1: W 2.17, G 3.19, Q 3.02, I 2.18, E 2.87, F 2.18, R 3.27, V 2.57, Y 3.44, N 2.81, S 2.81, M 2.3
K5: S 2.3, M 2.79, A 3.06, C 4.3, E 3.03, T 2.88, Q 2.79, R 2.63, W 3.18, P 1.15, L 2.23
K11: I 2.77, C 2.43, T 2.62, L 2.96, N 2.35, W 3.42, H 2.23, Y 2.5, D 3.21, M 2.56, A 2.32, F 2.79, Q 3.01
K12: Q 2.39, R 2.61, P 2.31, E 2.75, F 2.32, L 2.5, N 3.3, S 1.78, G 3.6, H 1.97, I 2.5, Y 2.32, M 2.28, D 3.14, A 2.44, W 2.27, T 1.79
L18: K 2.66, V 2.37, P 3.85, T 2.35, Y 2.2, N 5.08, G 2.82, E 3.18, R 3, W 1.7, Q 2.9, S 2.89
H14: W 3.52, S 2.25, P 3.18, F 2.4, Q 2.97, V 1.96, L 2.71, T 2.17, G 2.22, C 2.78, Y 2.63, M 2.86, R 2.2, D 2.34, N 1.97
H8: Y 2.89, G 2.13, F 2.71, D 2.67, M 2.49, K 2.14, W 2.06, P 4.21, C 3.2, T 2.58, R 4.2, Q 3.1, V 2.18, I 2.17, A 2.86, E 3.25
T9: R 2.45, L 2.51, S 3.36, I 1.87, G 2.8, W 3.49, H 3.04, A 2.04, D 3.3, E 2.98, V 3.62, F 2.8, C 2.32
C16: S 3.52, D 3.15, L 2.17, R 2.4, V 2.2, I 2.18, P 2.56, N 2.55, E 3.62, H 2.71, K 2.32, Y 2.23
V15: P 2.71, D 2.93, G 2.56, E 2.56, W 1.83, F 2.42, Y 2.55, N 2.05, L 1.89, H 2.34, T 2.46, I 2.69, K 2.9, M 2.98, R 2.32
G20: Y 2.9, P 1.91, L 2.06, N 3.49, C 2.93, F 1.97, Q 3.04, T 1.55, K 1.24, I 1.91, W 2.59, V 1.94, H 1.6, A 3.75
H4: D 2.9, W 2.78, I 2.19, V 1.94, Y 2.36, S 2.58, M 2.47, E 3.02, L 2.11, F 2.33, R 2.24, K 2.28, N 2.84, G 2.4, T 2.52, Q 3.31, P 2.43, A 2.22
C19: H 3.06, I 1.75, V 2.1, E 3.09, G 2.39, L 2.24, D 3.3, K 2.64, P 2.38, S 1.92, Y 2.15, R 3.01, T 2.24
F23: M 2.56, K 3.87, W 1.52, T 2.32, A 2.77, Y 2.47, Q 2.3, V 2.32, C 3.07, P 3.32, G 2.67, R 2.69, I 2.45, E 3.69
E3: G 1.79, M 1.89, T 1.67, P 2.45, V 2.23, K 2.93, D 2.71, F 2.31, A 2.47, I 1.96, W 1.71, S 2.59, N 2.22, R 1.86, C 2.38, H 1.68
S17: Y 2.11, V 1.49, Q 2.46, T 1.82, R 1.94, G 1.72, E 2.84, N 2.58, I 2.48, L 1.72, W 2.72, M 2.83, C 1.96, H 2.01, P 2.97
K21: N 3.08, M 1.98, Y 1.79, E 2.67, D 2.72, Q 3.8, G 2.38, F 1.73, S 2.44, W 2.15, C 1.39, I 2.11, V 3.11, L 1.77, H 1.91
P13: Q 2.26, R 3.48, M 3.06, F 2.23, S 2.33, K 2.03, Y 2.88, D 1.8, E 2.96, I 2.84, T 3.55, L 2.32, N 2.15, G 2.48
G10: E 3.6, N 1.98, P 3.22, A 2.78, M 3.35, F 3.73, Y 2.45, I 2.49, Q 2.28, W 2.97, T 2.83, L 2.27, K 2.96, C 3.76, D 2.63
